Data on 20 molecules can be found in US20250243282A1 (TRUEBINDING, published 2025).

Residue numbers refer to the chain shown, from its start. Names may count otherwise.

B1: 15F10.2D6 (antibody, mouse IgG2a, V domains shown)
VH: EVQLVESGGGLVKPGGSLKLSCAASGFAFSSYAMSWVRQTPEKRLEWVATISDGGVYTYYTDHVKGRFTISRDNAEDNLYLQMSHLKSEDTAMYYCVRDGGYWGQGTTLTVSS
VL: DVLMTQTPLSLPVSLGDQASISCRSSQSIVHNNGNTYLEWYLQKPGQSPKLLIYKVSNRFSGVPDRFSGSGSGTDFTLKISRVEAEDLGVYYCFQGSHVPLTFGGGTKLELKR
B2: F849C.8D10 (antibody, human IgG4 S228P, kappa, V domains shown)
VH: QVQLQQTGAELVKPGASVKLSCKASGYTFTSYWINWVKQRPGQGLEWIGNIYPGSSSIYYSEKFKSKATLTVDTSSSTAYMQLSSLTSDDSAVYYCARWGYWGQGTTLTVSS
VL: B1 VL with S28D, N32S, N33S, P49L, G69A, L101P, G105S, L111I
B3: 7D8.2D8 (antibody, mouse IgG2a, V domains shown)
VH: B1 VH with A28T, V56I, T61P, H63N, E76K, D77N, Y80F
VL: B1 VL with N32S, G105A
B4: 20H5.A3 (antibody, mouse IgG2a, V domains shown)
VH: QIQLVQSGPELKKPGESVKISCKASGYAFTTYGMSWVQQAPGKGLKWMGWVNTYSGVPTCADDFKGRFAFSLETSASTAYLQINNLRNEDTATYFCARGPYAMDYWGQGTSVTVSS
VL: DIQMTQTTSSLSASLGDRVTINCSASQDISNYLNWYQQKPDGTVKLLIYYTSSLLSGVPSRFSGSGSGTDYSLTISNLEPEDIATYFCQQYSKLPYTFGSGTHLEIKR
B5: 23H9.2E4 (antibody, mouse IgG2a, V domains shown)
VH: B4 VH with S17T, A28T, G33A, Q38K, V51I, C60Y, F64L, R87K
VL: B4 VL with N22S, D28G, S30N, T51A, L55H, F87Y, K93Q, L94V, H103K
B6: 3B11.2G2 (antibody, mouse IgG2a, V domains shown)
VH: QIQLVQSGPELKKPGETVKISCKTSGYKFKTYVMSWVKQAPGKALKWMGWINTYSGVPTYADDFKGRFAFSLETSASTAYLEIINLKNEDTATYFCARDGNYGDPMDYWGQGTSVTVSS
VL: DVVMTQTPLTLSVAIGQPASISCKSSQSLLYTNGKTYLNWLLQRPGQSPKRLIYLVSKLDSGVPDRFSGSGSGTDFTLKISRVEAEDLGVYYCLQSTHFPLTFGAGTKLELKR
B7: 13A12.2E5 (antibody, mouse IgG2a, V domains shown)
VH: B6 VH
VL: DVVMTQTPLTLSVAIGQPASISCKSSQSLLYTNGKTYLNWLLQRPGQSPKRLIYLLSKLDSGVPDRFSASGSGTDFTLKISRVEAEDLGVYYCLQSTHFPLTFGAGTKLEMKR
B8: 847.13E2-mH0mL1 (antibody, V domains shown)
VH: EVQLQQSGPELVKPGASVKVSCKASGYSFTDYNMYWVMQSHGKSLEWIGYIDPYNDATSYSQKFTGKATLTVDKSSSTAFMHLNSLTSEDSAVYYCARWGRYEYYAMDYWGQGTSVTVSS
VL: DIVMTQSPASLPVSLGQRATISCRASKSVTTSAYSYIHWYQQRPGQPPKLLIYLASNLESGVPARFSGSGSGTDFTLNIHPVEEEDAATYYCQHNRELPPTFGGGTKLEIN
B9: 847.13E2-mH0mL2 (antibody, V domains shown)
VH: B8 VH
VL: DIVLTQSPATLSVTPGDSVSFSCRASQIINNNLHWYQQKSHESPRLLIRYTSQSISGIPSRFSGSGSGTDFTLSINNVETEDFGMYFCQQTNSWPLTFGAGTKLELK
B10: 849.2D7 (antibody, V domains shown)
VH: QVQLQQSGPQLVRPGASVKISCKASGYSFTNYWMHWVKQRPGQGLEWIGMIDPSDSETRLNQKFKDKATLTVDKSSSTAYMQLSSPTSEDSAVYYCATGRPDYWGQGTTLTVSS
VL: DIVMTQSHKFMSTSVGDRVSITCKASQDVSTAVAWYQQKPGQSPKLLIYWASTRHTGVPDRFTGSGSGTDYTLTISSVQAEDLALYYCQQHYSTPYTFGGGTKLEIK
B11: 847.23F11 (antibody, V domains shown)
VH: QVQLQQSGAELVRPGASVKLSCKASGYTFTSSWMNWVKQRPGQGLDWIGMIDPSDSETHYNQMFKDKATLTVDKSSNTAYMQLSRLTSEDSAVYYCVNSNYESGYWGQGTTLTVSS
VL: B10 VL with V3L, T31S, A32V, A34V, L46Q
B12: 847.16D10 (antibody, V domains shown)
VH: QVQLQQSGAELVRPGASVKLSCKASGYTFTGYWLNWVKQRPGQGLEWIGMIDPSDSETHYNQVFKDKATMTVDRSSSTAYMQLSGLTSEDSAVYYCANSNYASGSWGQGTTLTVSS
VL: QAVVTQESALTTSPGETVTLTCRSSTGAVTTSNYANWDQEKPDHLFTGLIGGTNNRAPGVPARFSGSLIGDKAALTITGAQTEDEAIYFCALWYSNHLVFGGGTKVTVL
B13: 6B3.2D3 (antibody, human IgG4 S228P, kappa, V domains shown)
VH: QVQLKQSGPGLVQPSQSLSITCTVSGFSLTSYGVHWVRQPPGKGLEWLGVIWSGGSTDYNAAFISRLSISKDNSKSQVFFKMNSLQADDTAIYYCAKGPYDYDLGWFAYWGQGTLVTVSA
VL: SIVMTQTPKFLLVSAGDRVTITCKASQSVSNDVAWYQQKPGQSPKLLIYYASNRYTGVPDRFTGSGYGTDFTFTISTVQAEDLAVYFCQQDYTSPYTFGGGTKLEIKR
B14: 849.5H1 (antibody, V domains shown)
VH: QVQLKESGPVLVAPSQSLSITCTVSGFSLTSYGIHWVRQPPGKGLEWLGVIWAGGSTNYNSALMSRLSISKDNSKSQVFLKMNSLQIDDTAMYYCAKPPHDYDQAWFAYWGQGTLITVSA
VL: DIQMNQSPSSLSASLGDTITITCHASQNINVWLSWYQQKPGNIPKLLIYQASNLHTGVPSRFSGRGSGTGFTLTISSLQPEDIATYYCQQGQSSPFTFGSGTKLEIK
B15: 2D10-VH0-VL0 (antibody, human IgG4 S228P, kappa, V domains shown)
VH: QVQLQQSGPELVKPGASVKISCKASGYTFTDYYINWVKQRPGQGLEWIGWIYPGSQDTKYNEKFKGKATLTVDTSSSTAYMQLGSLTSEDSAVYFCANYFGSSGWFFDVWGTGTTVTVSS
VL: DIVMTQAAFSNPVTLGTSASISCRSSKSLLHSDGITYLYWYLQRPGQSPQLLIYRMSNLASGVPDRFSGSGSGTDFTLRISRVEAEDVGVYYCAQMIEFPLTFGAGTILELKR
B16: 15G7.2A7 (antibody, human IgG4 S228P, kappa, V domains shown)
VH: EVQLQQSGPELVKPGASVKISCKASGYTFTDYYMNWVKQSHGKSLEWIGDINPNNGGTNYNQKFKGKATLTVDKSSSTAYMELRSLTSEDSAVYYCTSGYGFPYWGQGTLVTVSA
VL: DIQMNQSPSSLSASLGDTISITCRASQNINIWLSWYQQKPGNIPQLLIYKASNLHTGVPSRFSGSGSGTDFTLTISSLQPEDIATYYCLQGQSYPLTFGAGTKLVMKR
B17: 20D11.2C6 (antibody, mouse IgG2a, V domains shown)
VH: B16 VH with Y32F, M34I, N54K, T58I, Q62P, G66I, A79S, E82D, S85G
VL: B16 VL with S20T, N30Y, Q45K, S77T, Y87F, V105E
B18: F846TC.14E4 (antibody, human IgG4 S228P, kappa, V domains shown)
VH: QVTLKESGPGILQPSQTLSLTCSFSGFSLSTSGMGVGWIRQPSGKGLEWLAHIWWDDDKYYNTALKSGLTISKDASKNQVFLKIASMDTADTATYYCARNLYDGSYGYYAMDYWGQGTSVTVSS
VL: DIVMTQAAFSNPVTLGTSASISCRSSKSLLHTNGITFLYWYLQKPGQSPQPLIYQMSNLASGVPDRFSSSGSGTDFTLRISRVEAEDVGVYYCAQNLELPWTFGGGTKLEINR
B19: 14H10.2C9 (antibody, mouse IgG2a, V domains shown)
VH: QIQLVQSGPELKKPGETVKISCKASGYTFTTYGMGWVKQAPGKDLKWMGWINTYSGVPTYADDFKGRFAFSLETSASTAYLQISNLKNEDTATYFCSTPYEYDGAYWGQGTLVTVSA
VL: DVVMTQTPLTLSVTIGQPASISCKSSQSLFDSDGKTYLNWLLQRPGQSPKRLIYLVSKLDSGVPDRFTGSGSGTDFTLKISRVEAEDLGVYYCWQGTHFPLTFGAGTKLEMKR
B20: F846TC.7F10 (antibody, human IgG4 S228P, kappa, V domains shown)
VH: EVQLVESGGDLVKPGGSLKLSCAASGFTFSNYGLSWIRQTPDKRLEWVATISSGGSYTYYPDSVKGRFTISRDSAKNTLYLQMSSLKSEDTAMYYCARHAHYYGVSPYYFDYWGQGTCLTVSS
VL: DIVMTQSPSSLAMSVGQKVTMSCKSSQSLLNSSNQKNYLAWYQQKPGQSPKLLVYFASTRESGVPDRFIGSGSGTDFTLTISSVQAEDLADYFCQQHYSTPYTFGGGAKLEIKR
Note: test concentration or dose not given here.

One assay has as its target T1, Recombinant human Gal3 (rhGal3) (TrueBinding, #QC200361) (human, UniProt P17931 2-250). Put plainly: cell-based or functional assay.
Regarding B1, the “% inhibition of CD62L shedding” value was 82.5%.

In the case of B2, the “% inhibition of CD62L shedding” value amounted to 180%.

On to B3, for which the “% inhibition of CD62L shedding” value was determined as 88.6%.

Consider B4, for which the “% inhibition of CD62L shedding” value came out at 66.3%.

Turning to B5, the “% inhibition of CD62L shedding” value stood at 91.9%.

On to B6, for which the “% inhibition of CD62L shedding” value was 92.7%.

For B7, the “% inhibition of CD62L shedding” value is 87.1%.

B8: the “% inhibition of CD62L shedding” value was determined as 79.9%.

B9: the “% inhibition of CD62L shedding” value came to 18.8%.

As to B10, the “% inhibition of CD62L shedding” value came out at 78.1%.

In the case of B11, the “% inhibition of CD62L shedding” value was 15.2%.

Take B12: the “% inhibition of CD62L shedding” value was found to be 14.4%.

As for B13, the “% inhibition of CD62L shedding” value amounted to 98.9%.

Turning to B14, the “% inhibition of CD62L shedding” value was found to be 87.5%.

With B15, the “% inhibition of CD62L shedding” value turned out to be 62.4%.

Turning to B16, the “% inhibition of CD62L shedding” value was determined as 110%.

For the molecule B17, the “% inhibition of CD62L shedding” value was found to be 89.4%.

Take B18: the “% inhibition of CD62L shedding” value came out at 90.3%.

Consider B19, for which the “% inhibition of CD62L shedding” value came to 86.3%.

In the case of B20, the “% inhibition of CD62L shedding” value is 96.1%.

The target of the next assay is T1, Recombinant human Gal3 (rhGal3) …. Put plainly: cell-based or functional assay. This is another data set of the same source.
For B1, the “% inhibition of IL-6 secretion” value came out at 51.5% and the “% inhibition of TNFα secretion” value came to 73.5%.

For the molecule B2, the “% inhibition of IL-6 secretion” value is -75.8% and the “% inhibition of TNFα secretion” value was -5.5%.

Consider B3, for which the “% inhibition of IL-6 secretion” value was determined as 17.4% and the “% inhibition of TNFα secretion” value was -11.5%.

Regarding B4, the “% inhibition of IL-6 secretion” value is 77.5% and the “% inhibition of TNFα secretion” value came out at 60.8%.

In the case of B5, the “% inhibition of IL-6 secretion” value is 92.6% and the “% inhibition of TNFα secretion” value is 100%.

For the molecule B6, the “% inhibition of IL-6 secretion” value is -4.6% and the “% inhibition of TNFα secretion” value was found to be 46.1%.

On to B7, for which the “% inhibition of IL-6 secretion” value was found to be 39.4% and the “% inhibition of TNFα secretion” value stood at 61.8%.

As to B10, the “% inhibition of IL-6 secretion” value stood at 39% and the “% inhibition of TNFα secretion” value is 42.7%.

For the molecule B13, the “% inhibition of IL-6 secretion” value was found to be 0.2% and the “% inhibition of TNFα secretion” value was -1.2%.

Consider B15, for which the “% inhibition of IL-6 secretion” value was 21.7% and the “% inhibition of TNFα secretion” value was 39.6%.

For the molecule B16, the “% inhibition of IL-6 secretion” value worked out at 31% and the “% inhibition of TNFα secretion” value was determined as 46.1%.

In the case of B17, the “% inhibition of IL-6 secretion” value was 43.7% and the “% inhibition of TNFα secretion” value amounted to 69.1%.

As for B18, the “% inhibition of IL-6 secretion” value stood at 15.7% and the “% inhibition of TNFα secretion” value was determined as 50.1%.

B19: the “% inhibition of IL-6 secretion” value came to 55.6% and the “% inhibition of TNFα secretion” value was found to be 54%.

B20: the “% inhibition of IL-6 secretion” value was -2.5% and the “% inhibition of TNFα secretion” value came to 72.3%.
